Tested on: p1
Test: p1 copy number by p1-encoded mKate2 fluorescence
Type: cell-based, S. cerevisiae
Details: OR-Y24, measured in triplicate
How it was run: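 Yeast OR-Y24 strains carrying TP-DNAP1 variants were grown to saturation from a 1:10,000 dilution, and p1-encoded mKate2 fluorescence was measured by flow cytometry (ex/em 561/620 nm). Values were converted to copy number via a linear calibration against qPCR of p1-encoded LEU2 versus genomic LEU3, or by plate-reader OD600-normalized fluorescence relative to w.t. TP-DNAP1.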

Row | Molecule | Mean fold-increase over w.t. (p1 copy number)
1 | E298I: TP-DNAP1 variant (protein) MDYKDKALNDLRNVYADFDSLPLDFRQILIKDRATLLQKEDVEKKILERQEDAKKYAEYLKQSEIPERISLPNIKRHKGVSISFEETSEDMVLEPRPFIFDGLNIRCFRRETIFSLKNKILNMVKESSSFKNVSRQSVSFMYFKIFNKGKVIASTKSVNIYEDKIDERLEDLCNNFDDVLKKIIDVTYGYESLFVSETYSYVIFYAKSIYFPQPRCVNNWGNNIPNILTFDSFKLFTANKNNVSCIKQCSRFLWQKDFNTLEEMIEYKNGNICIVTPQLHINDVRDIKSFNDIRLYSISPIKTFSVIDNTITYLFYFKEHLGVIFNITKSRHDRRVTKFSPLSKFSDVKNITVCFDIESYFDPEKESNQVNIPFICCASIIYNKVIGNIVDFEGRDCVAQMIEYVVDICGELNISSVELIAHNGGGYDFHYILSSMYNPAAIKNILIRNNSFISFNFAHDGVKFSVKDSYSFLLCSLANASKAFLNEETFKKTDFPHHDLKTADDLYKVYKEWSSVNTEINHVVEKEKLLITSEHIVNFTKNDKSKTLIEWSKDYCRNDVLVLSKVWLEFKNAVEDIFNCELVDQTMTLAGLSYKLFQANMPFDVELRHPNKEDYFNMREALIGGRCISVNGIYKDVLCLDVKSLYPASMAFYDQPYGSFKRVSSRPKDELGIYYVRVTPNRNNKSNFFPIRSHNKITYNNFEESTYIAWYTNVDIDIGLSEGHNIEYIPFDSYGNIGYSWSKKGKIFEKYIKDVLYKLKIKYEKQNNKVKRNVIKIIMNSLWGKFAQKWVNFEYFIKSEDDIDFESEEAYKIWDTDFMLIKKIKESTYSSKPIQNGVFTLSWARYHMKSIWDAGAKEGAECIYSDTDSIFVHKEHFKKNAKFMLNGLKVPIIGSEVGQLELECEFDKLLCAGKKQYMGFYTYFQDGKPCIKEKKRFKGIPSNYIIPELYAHLLSGADKEAKIQFLKFRREWGSVKGYIENKTVKAT | 2.34 fold
2 | I708M: TP-DNAP1 variant (protein) MDYKDKALNDLRNVYADFDSLPLDFRQILIKDRATLLQKEDVEKKILERQEDAKKYAEYLKQSEIPERISLPNIKRHKGVSISFEETSEDMVLEPRPFIFDGLNIRCFRRETIFSLKNKILNMVKESSSFKNVSRQSVSFMYFKIFNKGKVIASTKSVNIYEDKIDERLEDLCNNFDDVLKKIIDVTYGYESLFVSETYSYVIFYAKSIYFPQPRCVNNWGNNIPNILTFDSFKLFTANKNNVSCIKQCSRFLWQKDFNTLEEMIEYKNGNICIVTPQLHINDVRDIKSFNDIRLYSESPIKTFSVIDNTITYLFYFKEHLGVIFNITKSRHDRRVTKFSPLSKFSDVKNITVCFDIESYFDPEKESNQVNIPFICCASIIYNKVIGNIVDFEGRDCVAQMIEYVVDICGELNISSVELIAHNGGGYDFHYILSSMYNPAAIKNILIRNNSFISFNFAHDGVKFSVKDSYSFLLCSLANASKAFLNEETFKKTDFPHHDLKTADDLYKVYKEWSSVNTEINHVVEKEKLLITSEHIVNFTKNDKSKTLIEWSKDYCRNDVLVLSKVWLEFKNAVEDIFNCELVDQTMTLAGLSYKLFQANMPFDVELRHPNKEDYFNMREALIGGRCISVNGIYKDVLCLDVKSLYPASMAFYDQPYGSFKRVSSRPKDELGIYYVRVTPNRNNKSNFFPIRSHNKITYNNFEESTYMAWYTNVDIDIGLSEGHNIEYIPFDSYGNIGYSWSKKGKIFEKYIKDVLYKLKIKYEKQNNKVKRNVIKIIMNSLWGKFAQKWVNFEYFIKSEDDIDFESEEAYKIWDTDFMLIKKIKESTYSSKPIQNGVFTLSWARYHMKSIWDAGAKEGAECIYSDTDSIFVHKEHFKKNAKFMLNGLKVPIIGSEVGQLELECEFDKLLCAGKKQYMGFYTYFQDGKPCIKEKKRFKGIPSNYIIPELYAHLLSGADKEAKIQFLKFRREWGSVKGYIENKTVKAT | 2.32 fold
